# From IntAct's records for PubMed 23972470
# B1: Serine/threonine-protein kinase 3 (Homo sapiens), Q13188 (parent)
# chain: MEQPPAPKSKLKKLSEDSLTKQPEEVFDVLEKLGEGSYGSVFKAIHKESGQVVAIKQVPVESDLQEIIKEISIMQQCDSPYVVKYYGSYFKNTDLWIVMEYCGAGSVSDIIRLRNKTLIEDEIATILKSTLKGLEYLHFMRKIHRDIKAGNILLNTEGHAKLADFGVAGQLTDTMAKRNTVIGTPFWMAPEVIQEIGYNCVADIWSLGITSIEMAEGKPPYADIHPMRAIFMIPTNPPPTFRKPELWSDDFTDFVKKCLVKNPEQRATATQLLQHPFIKNAKPVSILRDLITEAMEIKAKRHEEQQRELEEEEENSDEDELDSHTMVKTSVESVGTMRATSTMSEGAQTMIEHNSTMLESDLGTMVINSEDEEEEDGTMKRNATSPQVQRPSFMDYFDKQDFKNKSHENCNQNMHEPFPMSKNVFPDNWKVPQDGDFDFLKNLSLEELQMRLKALDPMMEREIEELRQRYTAKRQPILDAMDAKKRRQQNF
# partner: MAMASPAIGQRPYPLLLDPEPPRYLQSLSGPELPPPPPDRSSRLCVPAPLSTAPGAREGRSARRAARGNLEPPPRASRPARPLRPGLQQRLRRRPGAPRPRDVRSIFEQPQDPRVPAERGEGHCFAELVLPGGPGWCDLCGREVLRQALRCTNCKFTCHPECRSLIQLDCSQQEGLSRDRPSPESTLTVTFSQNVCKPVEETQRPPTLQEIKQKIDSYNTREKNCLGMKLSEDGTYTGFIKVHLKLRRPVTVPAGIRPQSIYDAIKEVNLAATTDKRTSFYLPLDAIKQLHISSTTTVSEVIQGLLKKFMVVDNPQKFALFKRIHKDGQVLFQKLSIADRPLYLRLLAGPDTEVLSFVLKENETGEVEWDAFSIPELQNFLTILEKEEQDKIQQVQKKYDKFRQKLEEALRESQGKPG
# Variants of: B1
# Conditions: with RASSF5, Q8WWW0-1
row,Variant,effect of a mutation on the interaction
1,MEQPPAPKSKLKKLSEDSLTKQPEEVFDVLEKLGEGSYGSVFKAIHKESGQVVAIKQVPVESDLQEIIKEISIMQQCDSPYVVKYYGSYFKNTDLWIVMEYCGAGSVSDIIRLRNKTLIEDEIATILKSTLKGLEYLHFMRKIHRDIKAGNILLNTEGHAKLADFGVAGQLTDTMAKRNTVIGTPFWMAPEVIQEIGYNCVADIWSLGITSIEMAEGKPPYADIHPMRAIFMIPTNPPPTFRKPELWSDDFTDFVKKCLVKNPEQRATATQLLQHPFIKNAKPVSILRDLITEAMEIKAKRHEEQQRELEEEEENSDEDELDSHTMVKTSVESVGTMRATSTMSEGAQTMIEHNSTMLESDLGTMVINSEDEEEEDGTMKRNATSPQVQRPSFMDYFDKQDFKNKSHENCNQNMHEPFPMSKNVFPDNWKVPQDGDFDFLKNLSLEELQMRLKALDPMMEREIEELRQRYTAARQPILDAMDAKKRRQQNF [K473A],decreasing interaction strength
